What was measured:
[1] = substrate: CCn1c(=NN=c2sc3cc(S(=O)(=O)O)ccc3n2CC)sc2cc(S(=O)(=O)O)ccc21; experiment: spectrophotometric ABTS oxidation, plate reader, Lineweaver-Burk; type: biochemical, Aspergillus flavus; conditions: 0.1 M citrate buffer pH 3.4, 25 °C, 0.5 to 20 mM substrate, oxygen as co-substrate
[2] = substrate: O=C1O[C@H]([C@@H](O)CO)C(O)=C1O; experiment: purified protein; type: biochemical, Aspergillus flavus; conditions: pH 5.0, 30 °C, 0.05 to 1 mM substrate, oxygen as co-substrate

B1: Af_AO1 (Aspergillus flavus NRRL3357) (protein)
chain: HLVLHDDSFQPDHILRVTAQDVNQACMDRYSVLINGSLPGPQLNIQEGKVNWIRVYNDMEDLNVTMHWHGLSAFTAPFSDGTPMASQWPIPPGHFFDYEVRPEVGYAGTYFYHSHVGFQALTAWGALIVESAQPSPYQYDEERIIALSDFFTKTDEEIENGLTSTNFTWSGETSAVLVNGQGRLATNATGSCKLAAISVEPGKTYRLRFIGATALSFVSISLESHDVLEIIEADGHYTKPVNTSYLQISSGQRYSVLLKAKTEAELQQAKSRQFYFQLTTMGRPTVLTTFAVLEYPSPTTTDLITVPVTPPLPVANITYGWLDYTLEPYYPDLDFPTVEEVTRRIIINVHQNISDRTVWLQNGYDWVETFPKSPYLVDIYAGTLDLDASYKRAIASGYAFDNQTRLFPAKMGEVLEIVWQNQGAVSNGGVENHPFHAHGRHFYDIGGGDGLYNLTENEARLKGTHPVIRDTTMLYAYRKTTTALEPSGWRAWRIRVTAAGVWMVHCHVLQHMLMGMQTAFAFGDQTAIKAQSGTPAEGYLTYGGSAYGNVTHFPPVKHFFN
notes: natural signal peptide removed, no tag; codon-optimized gene in pPicZalphaB, secreted from Pichia pastoris KM71H; model target 561 residues
Km [1]: 1.89 ± 0.12 mM
Km [2]: 0.16 ± 0.03 mM
